This is an account of results in US6361968 (US Dept. of Health and Human Services, dated 1997).

B5: GBF-C/EBP chimeric protein (other)
chain: PVKDERELKRQKRKQSNRESARRSRLRNEAECEQTQQKVLELTSDNDRLRKRVEQLSRELDTLRGIFRQLPESSLVKAMGNCA
B7: c-Jun (unmodified) (other, UniProt P05412 241-331, looked up)
chain: PLSPIDMESQERIKAERKRMRNRIAASKCRKRKLERIARLEEKVKTLKAQNSELASTANMLREQVAQLKQKVMNHVNSGCQLMLTQQLQTF
B9: VBP-C/EBP chimeric protein (other)
chain: ASMTGGQQMGRDPLEEKVFVPDEQKDEKYWTRRKKNNVAAKRSRDARRLKENQTQQKVLELTSDNDRLRKRVEQLSRELDTLRGIFRQLPESSLVKAMGNCA

Series [1] has as its target B7. The series is described as follows: thermal melt of the mixture (FIG. 4).
In series [2] the target is T1, C/EBP bZIP domain (GCN4-C/EBP chimeric protein) (C/EBP: rat liver; GCN4: yeast).
T1 construct: Made in E. coli; forms a homodimer; also called C/EBP-C/EBP; wild type C/EBP
T1 chain: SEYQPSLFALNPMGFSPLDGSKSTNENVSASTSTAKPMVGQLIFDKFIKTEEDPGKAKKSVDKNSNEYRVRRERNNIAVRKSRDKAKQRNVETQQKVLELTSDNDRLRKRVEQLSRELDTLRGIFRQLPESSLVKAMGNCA
The series is described as follows: thermal melt of the mixture (FIG. 1).

Series [3] concerns the target B9. The series is described as follows: thermal melt of the mixture (FIG. 1).
The target of series [4] is B5. The series is described as follows: thermal melt of the mixture (FIG. 1).
Series [5] deals with the molecule itself. In words: CD thermal melt, homodimer, 150 mM KCl. The procedure:
(§1) CD analyses were performed as described in Materials and Methods of D. Krylov et al., 1994, *EMBO J.,* 13:2849–2861. T_m values were calculated as described in D, Krylov et al., 1994, Ibid, converted to K_{d(25)} and $\Delta G(25)$ using a $\Delta C_p$ of –0.96 kcal/mol° C.^-1 calculated from a T_m versus $\Delta H$ plot for all of the proteins as described herein. All thermal melts were reversible.
(§2) Table 1 presents the melting temperature (T_m,° C.), $\Delta G$ and k_d at 25° C. for CD thermal melts of a variety of proteins either as homodimers or an equimolar mixture of two proteins. […] The (L) denotes 'low' salt conditions (50 mM KCl, 25 mM Tris pH 8.0, 0.5 mM EDTA, 1 mM DTT) and the (H) denotes regular salt conditions (12.5 mM potassium phosphate, pH 7.4, 150 mM KCl, 0.25 mM EDTA, and 0.5 mM DTT). The latter conditions were used in Table 2. "0heptad-F" represents the F zipper with the basic region deleted. The RMS error in $\Delta G$ is 0.2 kcal/mol and 0.5 kcal/mol for homo- and heterodimers respectively.

For series [6], the target named is T1, C/EBP bZIP domain (GCN4-C/EBP chimeric …). In words: CD thermal melt, equimolar mixture, 150 mM KCl. How it is done:
as §2
(§3) The two chimeras were mixed with the four different length acidic extensions appended to the F zipper and their stability was determined from CD thermal melts.

The target in series [7] is B9. In words: CD thermal melt, equimolar mixture, 150 mM KCl. How it is done: as §2, §3
Series [8] deals with B5. In words: CD thermal melt, equimolar mixture, 150 mM KCl. The procedure: as §2, §3
Series [9] deals with the molecule itself. The series is described as follows: CD thermal melt, homodimer, 150 mM KCl, Kd at 25 C. The procedure: as §1, §2
In series [10] the target is T1, C/EBP bZIP domain (GCN4-C/EBP chimeric …). The series is described as follows: CD thermal melt, equimolar mixture, 150 mM KCl, Kd at 25 C. The procedure: as §2, §3
In series [11] the target is B9. The description is as above. How it is done: as §2, §3
The target in series [12] is B5. The series is described as above. How it is done:
as §2, §3

Series [13] has as its target T1, C/EBP bZIP domain (GCN4-C/EBP chimeric …). In words: thermal stability as heterodimers with C/EBP.
Series [14] deals with the molecule itself. In words: homodimer, dimerization study of FIG. 9.
The target of another series is c-Myc bHLH protein (murine, UniProt P01108 368-454). In words: heterodimer with c-Myc, dimerization study of FIG. 9.
Series [15] concerns the molecule itself. In words: from thermal melts of FIG. 4, Kd at 37 C.
For series [16], the target named is T1, C/EBP bZIP domain (GCN4-C/EBP chimeric …). In words: CD thermal melts.
Series [17] has as its target B9. The series is described as follows: CD thermal melts.
In series [18] the target is B5. The series is described as follows: CD thermal melts.
For series [19], the target named is B7. In words: from thermal melts of FIG. 4, Kd at 37 C.
Series [20] has as its target T2, CREB (unmodified) (UniProt P16220 254-327).
T2 construct: also called CREB protein
T2 sequence (looked up): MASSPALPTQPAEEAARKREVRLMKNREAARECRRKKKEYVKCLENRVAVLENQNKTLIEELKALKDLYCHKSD
In words: thermal melt of the mixture (FIG. 3).

The target in series [21] is T2, CREB (unmodified). In words: thermal melt, CREB with 4heptadCREB (FIG. 3).

Sequence of c-Myc bHLH protein (P01108 368-454 limits assumed, form in doubt): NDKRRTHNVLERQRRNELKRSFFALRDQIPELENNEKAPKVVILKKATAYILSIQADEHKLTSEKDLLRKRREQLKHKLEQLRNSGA

B1: new4heptadFos (4heptadFos with one asparagine of the acidic region changed to leucine) (designed binder)
chain: ASMTGGQQMGRDPDLEQRAEELARENEELEKEAEELEQELAELEAETDQLEDEKSALQTEIANLLKEKEKLEFILAAHRPACKIP
notes: also called N4heptad-Fos
As a reminder, the Tm is the temperature at the midpoint of the melting transition. Take B1: the Tm with c-Jun (unmodified) [1] was found to be 72 °C.

B2: 4heptad-F (designed binder)
chain: ASMTGGQQMGRDPGGGLEQRAEELARENEELEKEAEELEQENAELEQEVLELESRNDRLRKEVEQLERELDTLRGIFRQLPESSLVKAMGNCA
notes: also called 4heptad-F zipper protein
As usually defined, the Kd is the free concentration of one partner at which half of the binding sites on the other are occupied at equilibrium, for simple one-to-one binding. B2: the “melting temperature (given as ellipticity)” value in [2], in [3] and in series [4] was 65 °C each time. Also, the “deltaG at 25 C” value in series [5] is -6.3 kcal/mol; in [6], -14.2 kcal/mol; in series [7] it was -14.8 kcal/mol; in [8] it was -14.5 kcal/mol. Moreover, the Tm is 64.8 °C in series [6], 65.2 °C in series [7] and 65 °C in series [8]. Moreover, the Kd in [9] worked out at 20000 nM; in series [10], 0.04 nM; in series [11], 0.01 nM; in [12] it was 0.03 nM.

B3: 3heptad-F with the DP- N-terminal cap (designed binder)
chain: ASMTGGQQMGRDPLARENEELEKEAEELEQENAELEQEVLELESRNDRLRKEVEQLERELDTLRGIFRQLPESSLVKAMGNCA
notes: Built from the statement that DP- replaces DP-GGG; also called DP- cap
Turning to B3, the “fold stability against the DP-GGG cap” value in series [13] stood at 3 fold.

B4: AcidMax (Max with a polyglutamic acid extension) (designed binder)
chain: MASMTGGQQMGRDPDEEEDDEEELEELEDSFHSLRDSVPSLQGEKASRAQILDKATEYIQYMRRKNHTHQQDIDDLKRQNALLEQQVRALEKARSSAQLQT
As to B4, the Kd in series [14] turned out to be 30 nM; in the series with c-Myc bHLH protein, 0.002 nM.
For B5, the “deltaG at 25 C” value in series [5] is -10.6 kcal/mol. In series [9], this molecule yielded a Kd of 20 nM.

B6: 0heptadMax (dimerization domain of Max without an acidic extension) (designed binder)
chain: ASMTGGQQMGRDPDLEELEDSFHSLRDSVPSLQGEKASRAQILDKATEYIQYMRRKNHTHQQDIDDLKRQNALLEQQVRALEKARSSAQLQT
notes: domain: dimerization domain; also called OheptadMax
As to B6, in series [14], the affinity, expressed as Kd, was 100 nM.
B7 gave a Kd in series [15] of 20000 nM.

B8: 1heptad-F (designed binder)
chain: ASMTGGQQMGRDPGGGLEQENAELEQEVLELESRNDRLRKEVEQLERELDTLRGIFRQLPESSLVKAMGNCA
In the case of B8, the “stabilization against 0heptad-F” value in [16] was 1.7 kcal/mol; in [17] it was 0.9 kcal/mol; in [18] it was 1.3 kcal/mol. The “deltaG at 25 C” value was -8 kcal/mol in [5], -13.5 kcal/mol in series [6], -13.1 kcal/mol in [7] and -13.2 kcal/mol in series [8]. The Tm in series [6] turned out to be 60.8 °C; in series [7] it was 60.5 °C; in series [8] it was 62 °C. Further, the Kd stood at 1000 nM in series [9], 0.1 nM in [10], 0.3 nM in [11] and 0.2 nM in series [12].
Turning to B9, in series [5], the “deltaG at 25 C” value was -11.1 kcal/mol. In [9], binding was put at a Kd of 8 nM.

B10: c-Fos (unmodified) (other)
chain: PDKVEQLSPEEEEKRRIRRERNKMAAAKCRNRRRELTDTLQAETDQLEDEKSALQTEIANLLKEKEKLEFILAAHRPACKIP
notes: also called human c-Fos protein
As for B10, the Tm with c-Jun (unmodified) [1] worked out at 50 °C. In addition, the affinity with c-Jun (unmodified) [19], expressed as Kd, was 200 nM.

B11: New4hepCREB (CREB with the new 4heptad extension, asparagine changed to leucine) (designed binder)
chain: MDYKDDDDKHMASMTGGQQMGRDPDLEQRAEELARENEELEKEAEELEQELAELENRVAVLENQNKTLIEELKALKDLYCHKSD
notes: also called New4heptadCREB; CMV500-4heptadCREB
In the case of B11, the Tm with CREB (unmodified) [20] is 69.5 °C.

B12: 3heptad-C/EBP (three heptad acidic extension appended onto the C/EBP leucine zipper) (designed binder)
chain: ASMTGGQQMGRDPGGGLARENEELEKEAEELEQENAELEQKVLELTSDNDRLRKRVEQLSRELDTLRGIFRQLPESSLVKAMGNCA
Regarding B12, in series [6], the Tm came to 61 °C and the “deltaG at 25 C” value was -12.6 kcal/mol. Further, the Kd in series [10] stood at 0.6 nM.

B13: 3heptad-F with the DP-D N-terminal cap (designed binder)
chain: ASMTGGQQMGRDPDLARENEELEKEAEELEQENAELEQEVLELESRNDRLRKEVEQLERELDTLRGIFRQLPESSLVKAMGNCA
notes: Built from the statement that DP-D replaces DP-GGG; also called DP-D cap; DPD cap
Turning to B13, the “fold stability against the DP-GGG cap” value in [13] was found to be 3 fold.

B14: 2heptad-F (designed binder)
chain: ASMTGGQQMGRDPGGGLEKEAEELEQENAELEQEVLELESRNDRLRKEVEQLERELDTLRGIFRQLPESSLVKAMGNCA
On to B14, for which the “deltaG at 25 C” value was -7.4 kcal/mol in series [5], -13.9 kcal/mol in series [6], -13.8 kcal/mol in series [7] and -13.6 kcal/mol in [8]. In addition, the Tm turned out to be 63.6 °C in series [6], 62.8 °C in [7] and 63.1 °C in series [8]. Moreover, the dissociation constant (Kd) in series [9] came to 4000 nM; in series [10] it was 0.07 nM; in [11] it was 0.09 nM; in [12] it was 0.1 nM.

B15: 4heptadCREB (CREB with the 4heptad acidic extension appended at the amino terminus) (designed binder)
chain: ASMTGGQQMGRDPDLEQRAEELARENEELEKEAEELEQENAELENRVAVLENQNKTLIEELKALKDLYCHKSD
notes: also called 4hep-CREB
Turning to B15, the Tm with CREB (unmodified) [21] turned out to be 53 °C.
